Measured values reported in the Immune Epitope Database (IEDB).

Columns and labels:
HLA-B*51:01 = assay: IEDB peptide-MHC binding, purified MHC/competitive/fluorescence; filed as Kd, often an IC50 or EC50 that approximates it; ≥ and ≤ were set here for values at or beyond the usual limits of such assays; conditions: source organism: Salmonella enterica subsp. enterica serovar Typhi
HLA-B*07:02 [1] = assay: as above; conditions: source organism: Salmonella enterica subsp. enterica serovar Typhi
HLA-C*05:01 = assay: IEDB peptide-MHC binding, purified MHC/direct/fluorescence; filed as Kd, often an IC50 or EC50 that approximates it; ≥ and ≤ were set here for values at or beyond the usual limits of such assays; conditions: source organism: Salmonella enterica subsp. enterica serovar Typhi str. CT18
HLA-B*15:01 [2] = assay: IEDB peptide-MHC binding, purified MHC/competitive/fluorescence; filed as Kd, often an IC50 or EC50 that approximates it; ≥ and ≤ were set here for values at or beyond the usual limits of such assays
HLA-B*40:01 [3] = assay: as above
HLA-B*39:01 [4] = assay: as above; conditions: source organism: Yersinia pestis Nepal516
HLA-A*02:01 [5] = assay: as above; conditions: source organism: Yersinia pestis Nepal516
HLA-A*24:03 = assay: IEDB peptide-MHC binding, purified MHC/direct/fluorescence; filed as Kd, often an IC50 or EC50 that approximates it; ≥ and ≤ were set here for values at or beyond the usual limits of such assays
HLA-B*35:01 = assay: as above
HLA-B*07:02 [6] = assay: as above
HLA-B*15:09 = assay: as above
HLA-B*39:01 [7] = assay: as above
HLA-C*14:02 = assay: as above; conditions: source organism: Salmonella enterica subsp. enterica serovar Typhi str. CT18
HLA-A*02:12 = assay: IEDB peptide-MHC binding, purified MHC/competitive/fluorescence; filed as Kd, often an IC50 or EC50 that approximates it; ≥ and ≤ were set here for values at or beyond the usual limits of such assays; conditions: source organism: Haemophilus influenzae 22.1-21
HLA-A*02:11 = assay: as above; conditions: source organism: Haemophilus influenzae 22.1-21
HLA-A*31:01 = assay: IEDB peptide-MHC binding, purified MHC/direct/fluorescence; filed as Kd, often an IC50 or EC50 that approximates it; ≥ and ≤ were set here for values at or beyond the usual limits of such assays
HLA-A*69:01 = assay: as above
HLA-A*02:01 [8] = assay: as above
HLA-A*01:01 [9] = assay: IEDB peptide-MHC binding, purified MHC/competitive/fluorescence; filed as Kd, often an IC50 or EC50 that approximates it; ≥ and ≤ were set here for values at or beyond the usual limits of such assays; conditions: source organism: Homo sapiens
HLA-A*29:02 = assay: as above; conditions: source organism: Homo sapiens
HLA-B*27:05 = assay: IEDB peptide-MHC binding, purified MHC/direct/fluorescence; filed as Kd, often an IC50 or EC50 that approximates it; ≥ and ≤ were set here for values at or beyond the usual limits of such assays
HLA-A*26:01 = assay: as above
HLA-B*15:01 [10] = assay: as above
HLA-A*03:01 = assay: as above
HLA-A*01:01 [11] = assay: as above
HLA-B*44:02 = assay: as above; conditions: source organism: Vibrio parahaemolyticus
HLA-B*40:01 [12] = assay: as above; conditions: source organism: Vibrio parahaemolyticus
HLA-B*58:01 = assay: as above
HLA-A*11:01 = assay: as above
HLA-B*08:01 [13] = assay: as above
HLA-A*30:01 = assay: as above; conditions: source organism: Vibrio parahaemolyticus
HLA-A*68:02 [14] = assay: IEDB peptide-MHC binding, purified MHC/competitive/fluorescence; filed as Kd, often an IC50 or EC50 that approximates it; ≥ and ≤ were set here for values at or beyond the usual limits of such assays; conditions: source organism: Bacillus anthracis str. A2012
HLA-B*57:01 = assay: IEDB peptide-MHC binding, purified MHC/direct/fluorescence; filed as Kd, often an IC50 or EC50 that approximates it; ≥ and ≤ were set here for values at or beyond the usual limits of such assays
HLA-A*24:02 = assay: as above; conditions: source organism: Bacillus anthracis
HLA-B*18:01 = assay: as above
HLA-B*15:17 = assay: as above
HLA-A*23:01 = assay: as above; conditions: source organism: Bacillus anthracis
HLA-A*02:03 = assay: IEDB peptide-MHC binding, purified MHC/competitive/fluorescence; filed as Kd, often an IC50 or EC50 that approximates it; ≥ and ≤ were set here for values at or beyond the usual limits of such assays; conditions: source organism: Francisella tularensis subsp. tularensis FSC198
HLA-A*26:02 = assay: as above; conditions: source organism: Francisella tularensis subsp. tularensis FSC198
HLA-B*08:01 [15] = assay: as above; conditions: source organism: Francisella tularensis subsp. tularensis FSC198
HLA-A*68:02 [16] = assay: IEDB peptide-MHC binding, purified MHC/direct/fluorescence; filed as Kd, often an IC50 or EC50 that approximates it; ≥ and ≤ were set here for values at or beyond the usual limits of such assays; conditions: source organism: Francisella tularensis subsp. holarctica LVS
HLA-B*48:01 = assay: as above; conditions: source organism: Francisella tularensis subsp. holarctica LVS
[17] = source organism: Escherichia coli B171
[18] = source organism: Yersinia pestis Nepal516
[19] = source organism: Pseudomonas sp. KIE171
[20] = source organism: Haemophilus influenzae
[21] = source organism: Vibrio parahaemolyticus
[22] = source organism: Bacillus anthracis
[23] = source organism: Bacillus anthracis str. A0465
[24] = source organism: Francisella tularensis subsp. holarctica LVS
[25] = source organism: Francisella tularensis subsp. tularensis FSC033

With FPPGTSLTI the Kd (HLA-B*51:01) was 0.564 µM, the Kd (HLA-B*07:02 [1]) was 0.187 µM and the Kd (HLA-C*05:01) was no less than 20 µM.
AELRLVHEL was tested, and the Kd (HLA-B*15:01 [2]; [17]) was no less than 20 µM and the Kd (HLA-B*40:01 [3]; [17]) was 0.0069 µM.
In the case of SQMGLSCAL, the Kd (HLA-B*15:01 [2]; [18]) is reported as 0.0976 µM, the Kd (HLA-B*40:01 [3]; [18]) is reported as 0.567 µM and the Kd (HLA-B*39:01 [4]) is reported as 0.0035 µM. The Kd (HLA-A*02:01 [5]) was 0.0046 µM.
For VPWQEKTAS, the Kd (HLA-A*24:03; [19]) was 10.5 µM, the Kd (HLA-B*35:01; [19]) was 0.00328 µM and the Kd (HLA-B*07:02 [6]; [19]) was 5.81 µM.
With EHIPTMKIF the Kd (HLA-B*15:09; source organism: Variola virus) was 0.304 µM and the Kd (HLA-B*39:01 [7]; source organism: Camelpox virus M-96) was 1.34 µM.
AETLMAQPF gave a Kd (HLA-B*40:01 [3]; source organism: Salmonella enterica subsp. enterica serovar Typhi) of 0.0122 µM and a Kd (HLA-C*14:02) of 2.31 µM.
Sequence RFLEDYFGV has a Kd (HLA-A*02:12) of 0.0443 µM, a Kd (HLA-A*02:11) of 0.0041 µM and a Kd (HLA-A*31:01; [20]) of 0.558 µM. For the same sequence, the Kd (HLA-A*69:01; [20]) was 0.547 µM and the Kd (HLA-A*02:01 [8]; [20]) was 0.141 µM.
In the case of SVDGFRASY, the Kd (HLA-A*01:01 [9]) is reported as 0.0071 µM and the Kd (HLA-A*29:02) is reported as 0.0013 µM.
Work on NSDPEFNVL yielded a Kd (HLA-B*27:05; [21]) of no less than 20 µM, a Kd (HLA-A*31:01; [21]) of no less than 20 µM and a Kd (HLA-A*26:01; [21]) of no less than 20 µM. For the same sequence, the Kd (HLA-B*15:01 [10]; [21]) was no less than 20 µM, the Kd (HLA-A*03:01; [21]) was no less than 20 µM and the Kd (HLA-A*01:01 [11]; [21]) was 0.387 µM. It also gave a Kd (HLA-B*44:02) of no less than 20 µM, a Kd (HLA-B*40:01 [12]) of 5.06 µM and a Kd (HLA-B*58:01; [21]) of no less than 20 µM. For the same sequence, the Kd (HLA-A*69:01; [21]) was no less than 20 µM, the Kd (HLA-B*35:01; [21]) was 0.208 µM and the Kd (HLA-A*11:01; [21]) was no less than 20 µM. It also gave a Kd (HLA-B*08:01 [13]; [21]) of no less than 20 µM, a Kd (HLA-B*39:01 [7]; source organism: Vibrio parahaemolyticus AQ3810) of 0.013 µM and a Kd (HLA-A*02:01 [8]; [21]) of no less than 20 µM. For the same sequence, the Kd (HLA-B*07:02 [6]; [21]) was no less than 20 µM.
With VMETENALF the Kd (HLA-B*27:05; [21]) was no less than 20 µM, the Kd (HLA-A*31:01; [21]) was no less than 20 µM and the Kd (HLA-A*26:01; [21]) was no less than 20 µM. It also gave a Kd (HLA-B*15:01 [10]; [21]) of 0.301 µM, a Kd (HLA-A*03:01; [21]) of no less than 20 µM and a Kd (HLA-A*01:01 [11]; [21]) of 5.02 µM. The Kd (HLA-B*44:02) was no less than 20 µM, the Kd (HLA-B*40:01 [12]) was no less than 20 µM and the Kd (HLA-A*30:01) was no less than 44.8 µM. It also gave a Kd (HLA-A*69:01; [21]) of no less than 20 µM, a Kd (HLA-B*35:01; [21]) of 0.427 µM and a Kd (HLA-A*11:01; [21]) of no less than 20 µM. For the same sequence, the Kd (HLA-B*08:01 [13]; [21]) was no less than 20 µM and the Kd (HLA-A*02:01 [8]; [21]) was no less than 20 µM.
Work on YFENSDLNL yielded a Kd (HLA-A*68:02 [14]) of no less than 20 µM, a Kd (HLA-B*27:05; [22]) of no less than 20 µM and a Kd (HLA-B*57:01; [22]) of no less than 20 µM. For the same sequence, the Kd (HLA-A*31:01; [22]) was no less than 20 µM, the Kd (HLA-A*24:03; [22]) was 0.13 µM and the Kd (HLA-A*26:01; [23]) was no less than 20 µM. It also gave a Kd (HLA-B*15:01 [10]; [22]) of no less than 5 µM, a Kd (HLA-A*03:01; [22]) of no less than 20 µM and a Kd (HLA-A*01:01 [11]; [22]) of no less than 20 µM. The Kd (HLA-B*58:01; [22]) was no less than 20 µM, the Kd (HLA-B*15:09; [23]) was no less than 20 µM and the Kd (HLA-A*24:02) was 7.5 µM. It also gave a Kd (HLA-B*18:01; [22]) of no less than 20 µM, a Kd (HLA-A*11:01; [22]) of no less than 20 µM and a Kd (HLA-B*15:17; [22]) of no less than 20 µM. It also gave a Kd (HLA-A*23:01) of 0.65 µM, a Kd (HLA-B*08:01 [13]; [23]) of no less than 20 µM and a Kd (HLA-B*39:01 [7]; [23]) of no less than 20 µM. For the same sequence, the Kd (HLA-A*02:01 [8]; [22]) was no less than 20 µM and the Kd (HLA-B*07:02 [6]; [22]) was no less than 20 µM.
HHSLTHHQL was tested, and the Kd (HLA-B*15:09; source organism: Escherichia coli O157:H7 str. EC869) was 0.002 µM.
KRINSLIKY gave a Kd (HLA-B*15:01 [2]; source organism: Francisella tularensis subsp. tularensis FSC198) of 3 µM, a Kd (HLA-A*02:03) of 2.47 µM and a Kd (HLA-A*26:02) of no less than 20 µM. The Kd (HLA-B*08:01 [15]) was no less than 20 µM, the Kd (HLA-B*27:05; [24]) was 0.132 µM and the Kd (HLA-B*57:01; [24]) was no less than 20 µM. For the same sequence, the Kd (HLA-A*31:01; [24]) was no less than 20 µM, the Kd (HLA-A*68:02 [16]) was no less than 20 µM and the Kd (HLA-A*01:01 [11]; [24]) was no less than 20 µM. The Kd (HLA-B*58:01; [24]) was no less than 20 µM, the Kd (HLA-B*15:09; [25]) was no less than 20 µM and the Kd (HLA-A*69:01; [24]) was no less than 20 µM. For the same sequence, the Kd (HLA-B*18:01; [24]) was no less than 20 µM, the Kd (HLA-A*11:01; [24]) was no less than 20 µM and the Kd (HLA-B*15:17; [24]) was no less than 20 µM. The Kd (HLA-B*48:01) was no less than 20 µM, the Kd (HLA-B*39:01 [7]; [25]) was no less than 20 µM and the Kd (HLA-B*07:02 [6]; [24]) was no less than 20 µM.
